# According to paper PMC10499821 (2023):
# Where no end group is shown, it is not given here. The star is where a group is joined. FITC = O=C1OC2(c3ccc(O)cc3Oc3cc(O)ccc32)c2ccc(NC(=S)*)cc21
# B1: NYNRIN_(1031–1046) (peptide)
# peptide: CPSLSEEILRCLSLHD
# B2: MVB12A 166-180 (peptide)
# chain: MQGLSLDAASQPSKGY
# B3: RIF1 1780-1795 (peptide)
# chain: NPYSEGQFLDEHHSVN
# B4: NOTCH4 1605-1620 (peptide)
# chain: FQGAWLGCPEPWEPLL
# B5: FITC-DNAH2 92-107 (peptide)
# chain: {FITC}-AVWTQEHDAILEHFAQ
# B6: MBOAT1_(16–31) (peptide)
# peptide: GSTYLHPLSELLGIPL
# B7: Nsp9 (natural protein)
# chain: NNELSPVALRQMSCAAGTTQTACTDDNALAYYNTTKGGRFVLALLSDLQDLKWARFPKSDGTGTIYTELEPPCRFVTDTPKGPKVKYLYFIKGLNNLNRGMVLGSLAATVRLQ
# B8: NKRF_(8–23) (peptide)
# peptide: AEGIDIGEMPSYDLVL
# B9: LMTK3 22-36 (peptide)
# chain: YPAHPDGFALGRAPLA
# B10: N_(216–231) peptide (peptide)
# peptide: DAALALLLLDRLNQLE
# B11: NEK9 737-751 (peptide)
# chain: SSGLSIGTVFQSSSPY
# B12: FITC-DYRK1B 394-409 (peptide)
# chain: {FITC}-PGHSPADYLRFQDLVL
# B13: NCOA2_(1074–1089) (peptide)
# peptide: SDEGALLDQLYLALRN
# B14: AXIN1_(1–15) (peptide)
# peptide: MNIQEQGFPLDLGAS
# B15: LMTK3_(22–36) (peptide)
# peptide: PAHPDGFALGRAPLA
# B16: AXIN1 1-15 (peptide)
# chain: MNIQEQGFPLDLGASY
# B17: PRDM14_(197–213) (peptide)
# peptide: FTEEDLHFVLYGVTPS
# B18: MCM9 796-811 (peptide)
# chain: DIGLLPSPGETGVPWR
# What was measured:
# [1] = molecular target: Nsp3 Ubl1 (SARS-CoV-2, UniProt P0DTD1 819-2763); test: FP
# [2] = molecular target: Nsp9
# [3] = molecular target: Nsp8
# [4] = molecular target: Nsp3 ADRP (SARS-CoV-2, UniProt P0DTD1 819-2763); test: FP
# [5] = molecular target: MCM9 796-811; test: FP
# [6] = molecular target: RIF1 1780-1795; test: FP
# [7] = molecular target: NEK9 737-751; test: FP
# [8] = molecular target: MVB12A 166-180; test: FP
# [9] = molecular target: B7; test: FP
# [10] = molecular target: Nsp16
# [11] = molecular target: Nsp3 SUD-M (SARS-CoV-2, UniProt P0DTD1 819-2763); test: FP
binder,measurement,setting,value
B1,Kd,[1],150 µM
B2,Kd,[2],450 µM
B3,Kd,[2],88 µM
B4,Kd,[2],125 µM
B5,Kd,[3],~190 µM
B6,Kd,[4],104 µM
B7,Kd,[5],~3200 µM
same,Kd,[6],88 µM
same,Kd,[7],111 µM
same,Kd,[8],450 µM
B8,Kd,[9],50 µM
B9,Kd,[2],34 µM
B10,Kd,[1],64 µM
B11,Kd,[2],111 µM
B12,Kd,[10],3.2 µM
B13,Kd,[1],26 µM
B14,Kd,[9],49 µM
B15,Kd,[9],34 µM
B16,Kd,[2],49 µM
B17,Kd,[11],37 µM
B18,Kd,[2],~3200 µM
